From US5763174
Like-named read-outs stand apart in the source and are kept apart here.

Experiments:
[1] = molecular target: T1, F-WT DRADA (Homo sapiens) (UniProt P55265); conditions: editing at intronic +60 site by DRADA alone; no Q/R editing alone, up to 34% Q/R with 293 extract cofactor
T1 sequence: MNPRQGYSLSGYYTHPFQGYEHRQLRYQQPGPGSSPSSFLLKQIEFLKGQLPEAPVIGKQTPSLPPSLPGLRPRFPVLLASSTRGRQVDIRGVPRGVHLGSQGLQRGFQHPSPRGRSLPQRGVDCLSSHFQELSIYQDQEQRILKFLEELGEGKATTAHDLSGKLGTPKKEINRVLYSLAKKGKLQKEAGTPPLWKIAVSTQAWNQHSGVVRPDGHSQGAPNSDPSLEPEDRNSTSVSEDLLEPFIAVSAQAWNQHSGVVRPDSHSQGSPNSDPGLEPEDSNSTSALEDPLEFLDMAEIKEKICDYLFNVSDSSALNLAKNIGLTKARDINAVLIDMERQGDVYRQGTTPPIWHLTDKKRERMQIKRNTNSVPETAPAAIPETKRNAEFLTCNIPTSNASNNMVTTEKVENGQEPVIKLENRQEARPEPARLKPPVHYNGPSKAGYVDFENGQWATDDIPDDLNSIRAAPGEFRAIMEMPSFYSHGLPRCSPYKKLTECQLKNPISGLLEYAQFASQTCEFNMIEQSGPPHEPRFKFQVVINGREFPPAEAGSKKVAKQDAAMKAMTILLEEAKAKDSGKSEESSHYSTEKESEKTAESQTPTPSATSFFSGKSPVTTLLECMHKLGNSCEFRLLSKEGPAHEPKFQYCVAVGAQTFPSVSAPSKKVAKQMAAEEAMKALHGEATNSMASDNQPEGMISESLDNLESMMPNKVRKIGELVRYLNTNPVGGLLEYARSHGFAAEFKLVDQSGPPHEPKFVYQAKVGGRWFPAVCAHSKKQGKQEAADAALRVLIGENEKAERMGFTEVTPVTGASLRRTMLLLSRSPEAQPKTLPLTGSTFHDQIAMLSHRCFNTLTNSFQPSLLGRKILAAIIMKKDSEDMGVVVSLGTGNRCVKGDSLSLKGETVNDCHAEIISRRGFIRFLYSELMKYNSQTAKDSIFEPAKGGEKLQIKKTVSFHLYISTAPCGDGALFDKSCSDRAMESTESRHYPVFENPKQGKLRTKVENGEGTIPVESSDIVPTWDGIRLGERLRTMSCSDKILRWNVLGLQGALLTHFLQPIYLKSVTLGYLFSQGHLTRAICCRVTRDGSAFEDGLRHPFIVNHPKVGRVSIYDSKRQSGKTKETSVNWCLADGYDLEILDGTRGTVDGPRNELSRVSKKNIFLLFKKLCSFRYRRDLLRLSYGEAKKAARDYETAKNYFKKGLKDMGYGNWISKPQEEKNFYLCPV

[2] = molecular target: recombinant F-WT DRADA protein (full-length 140 kD human DRADA protein carrying an epitope-tag peptide FLAG at the NH2-terminal) (human)
[3] = molecular target: T2, DRADA (dsRNA adenosine deaminase, purified 93/88/83 kD forms) (Bos taurus) (UniProt F1MUM9); conditions: assay not described; species/form of DRADA not stated in the passage
T2 sequence: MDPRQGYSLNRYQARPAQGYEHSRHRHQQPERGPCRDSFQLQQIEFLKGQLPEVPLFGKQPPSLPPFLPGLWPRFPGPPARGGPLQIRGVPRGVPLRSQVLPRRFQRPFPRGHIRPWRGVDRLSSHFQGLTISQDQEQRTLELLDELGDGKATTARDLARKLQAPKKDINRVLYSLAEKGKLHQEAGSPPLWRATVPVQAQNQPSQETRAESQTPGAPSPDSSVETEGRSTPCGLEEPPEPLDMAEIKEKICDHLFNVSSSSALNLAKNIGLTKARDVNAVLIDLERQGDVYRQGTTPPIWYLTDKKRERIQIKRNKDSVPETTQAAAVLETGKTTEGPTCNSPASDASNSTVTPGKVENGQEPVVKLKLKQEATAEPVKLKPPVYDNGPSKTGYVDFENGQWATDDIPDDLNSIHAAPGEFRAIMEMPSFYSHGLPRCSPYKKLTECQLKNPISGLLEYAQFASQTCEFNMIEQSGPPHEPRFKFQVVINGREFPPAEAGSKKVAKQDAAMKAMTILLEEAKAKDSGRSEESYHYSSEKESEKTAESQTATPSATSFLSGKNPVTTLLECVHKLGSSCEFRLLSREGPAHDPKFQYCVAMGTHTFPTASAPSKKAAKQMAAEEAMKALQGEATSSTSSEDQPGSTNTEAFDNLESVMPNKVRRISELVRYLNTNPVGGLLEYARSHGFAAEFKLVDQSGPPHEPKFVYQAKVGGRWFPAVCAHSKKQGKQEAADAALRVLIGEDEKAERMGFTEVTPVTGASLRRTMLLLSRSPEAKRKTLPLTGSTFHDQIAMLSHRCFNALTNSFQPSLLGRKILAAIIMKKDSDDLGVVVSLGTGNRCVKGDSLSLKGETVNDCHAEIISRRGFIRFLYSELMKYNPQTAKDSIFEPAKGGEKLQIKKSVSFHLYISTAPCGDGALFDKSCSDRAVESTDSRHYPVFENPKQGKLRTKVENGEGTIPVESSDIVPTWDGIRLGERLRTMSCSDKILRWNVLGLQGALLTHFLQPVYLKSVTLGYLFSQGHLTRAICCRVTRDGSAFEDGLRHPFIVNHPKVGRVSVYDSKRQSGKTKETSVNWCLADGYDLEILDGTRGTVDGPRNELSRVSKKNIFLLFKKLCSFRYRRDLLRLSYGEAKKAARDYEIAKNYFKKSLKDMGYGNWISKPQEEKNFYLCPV

[4] = molecular target: recombinant F-WT DRADA protein (full-length 140 kD human DRADA protein carrying an epitope-tag peptide FLAG at the NH2-terminal) (human); remark: listed apart in the source

GluR-B Bmini RNA (745 nt)
activity [1]: < 79%

293 nuclear extract (unidentified cofactor protein(s) of 293 human embryonic kidney cells) (pool or library)
Q/R site editing of synthetic GluR-B RNA (in vitro editing, primer extension assay) [2]: 14%

575 bp dsRNA
Kd [3]: 0.23 nM

HeLa nuclear extract (unidentified cofactor protein(s)) (pool or library)
Q/R site editing of synthetic GluR-B RNA (in vitro editing, primer extension assay) [4]: 63%
